Changes are numbered by the printed parent chain. In names and notes the source's numbering stands. Blank lines part the entries; values can stand above or below the molecule they belong to.
Columns and labels:
COS-7 cells = experiment: NO release (NO2−, chemiluminescence) from transfected COS cells; assay type: cell-based; settings: for Akt dependent NO release / activation of NOS construct: NOS construct co-transfected with Akt; for NO2− accumulation on co-transfection with eNOS: Akt construct co-transfected with eNOS, FIG. 1A
Source text: Cell Transfections: The bovine eNOS, human iNOS, rat nNOS cDNAs in pcDNA3 and HA-tagged wild-type Akt, Akt (K179M) or myr-Akt in pCMV6 were generated by standard cloning methods. The myr-nNOS in pcDNA3 was generated by PCR, incorporating a new amino terminus containing the eNOS N-myristoylation consensus site (MGNLKSVG, SEQ ID NO:1) fused in frame to the second amino acid of the nNOS coding sequence. […] Mutation of the putative Akt phosphorylation sites in eNOS were generated using the Quick Change site-directed mutagenesis kit (Stratagene) according to the manufacturers instructions. All mutants were verified by DNA sequencing. COS-7 cells were plated (100 mm dish) and transfected with the NOS (7.5-30 mg) and Akt (1 mg) plasmids using calcium phosphate. To balance all transfections, the expression vector for β-galactosidase cDNA was used. Twenty-four to forty-eight hours after transfection, the expression of appropriate proteins (40-80 mg) were confirmed by Western blot analysis using eNOS mAb (9D10, Zymed), HA mAb (12CA5, Boehringer Mannheim), iNOS pAb (Zymed Laboratories) or nNOS mAb (Zymed Laboratories).
NO release from transfected COS cells: 24-48 hrs after transfection, media was processed for the measurement of nitrite (NO2^−), the stable breakdown product of NO in aqueous solution, by NO specific chemiluminescence as described (Sessa et al., 1995). Media was deproteinized and samples containing NO2^− were refluxed in glacial acetic acid containing sodium iodide. […] In all experiments, NO2^− release was inhibitable by a NOS inhibitor. In addition, NO2^−-release from cells transfected with the β-galactosidase cDNA was subtracted to control for background levels of NO2^− found in serum or media. In some experiments, cGMP accumulation in COS was used as a bioassay for the production of NO as described.

Akt [1] = experiment: In vitro kinase reaction with Akt immunoprecipitated from COS cells; assay type: biochemical; settings: immunoprecipitated kinase
Akt [2] = target: T1, Akt (Homo sapiens, UniProt P31749); experiment: In vitro phosphorylation of eNOS peptides (1174-1194) by recombinant Akt; assay type: biochemical; settings: n=5
T1 construct: host or cells: baculovirus-infected SF9 cells (Akt); peptides synthesized at the W. M. Keck Biotechnology Resource Center
T1 sequence (P31749 whole entry): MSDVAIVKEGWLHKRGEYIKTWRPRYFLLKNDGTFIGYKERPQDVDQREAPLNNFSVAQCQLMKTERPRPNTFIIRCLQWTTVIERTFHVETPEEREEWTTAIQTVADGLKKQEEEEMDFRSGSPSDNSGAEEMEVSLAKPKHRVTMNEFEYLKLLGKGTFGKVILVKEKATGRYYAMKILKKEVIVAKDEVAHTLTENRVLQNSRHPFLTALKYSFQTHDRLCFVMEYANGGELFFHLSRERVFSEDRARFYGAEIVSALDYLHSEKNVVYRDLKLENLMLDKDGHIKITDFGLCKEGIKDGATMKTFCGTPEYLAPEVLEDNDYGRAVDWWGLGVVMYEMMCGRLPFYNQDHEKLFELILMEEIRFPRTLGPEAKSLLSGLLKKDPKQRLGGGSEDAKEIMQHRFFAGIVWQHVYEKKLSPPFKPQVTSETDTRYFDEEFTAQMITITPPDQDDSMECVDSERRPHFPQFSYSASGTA
Procedure: In studies identifying the labeled eNOS peptide, immunoprecipitated Akt was incubated with recombinant eNOS as above. The sample was run on SDS-PAGE, and the eNOS band digested in gel, and the resultant tryptic fragments purified by RP-HPLC. Peptide mass and ^32P incorporation were monitored and the prominent labeled peak further analyzed by mass spectrometry. In other experiments, peptides corresponding to the potential Akt phosphorylation site were synthesized, purified by HPLC and verified by mass spectrometry (W. M. Keck Biotechnology Resource Center, Yale University School of Medicine). The wild-type peptide was 1174[…]1194 (SEQ ID NO:2) and the mutant peptide was identical except S1179 was changed to an alanine. In vitro kinase reactions were essentially as described above incubating peptides (25 mg) with recombinant Akt (1 mg). Reactions were then spotted onto phosphocellulose filters and the amount of phosphate incorporated measured by Cerenkov counting.

Akt [3] = experiment: 32P phosphorylation of eNOS in intact transfected COS cells; assay type: cell-based; settings: eNOS/Akt transfected COS cells; wortmannin 500 nM
Procedure: Phosphorylation studies in vivo and in vitro: For in vivo phosphorylation studies, COS cells were transfected with the cDNAs for wild-type or S635, 1179A eNOS and HA-Akt overnight. 36 hrs after transfection, cells were placed into dialyzed serum replete, phosphate-free Dulbecco's minimum essential medium supplemented with 80 μCi/ml of ^32P orthophosphoric acid for 3 hr. Some cells were pretreated with wortmannin (500 nM) in the phosphate-free media for 1 hr and during the labeling.

eNOS = experiment: NOS activity (3H-L-arginine to 3H-L-citrulline) in COS cell lysates; assay type: biochemical, bovine; settings: COS cells transfected with eNOS only, n=3
Source text: NOS activity assays: The conversion of ^3H-L-arginine to ^3H-L-citrulline was used to determine NOS activity in COS cell or endothelial cell lysates as previously described by Garcia-Cardena et al. (1998).

Akt [4] = target: T1, Akt; experiment: In vitro phosphorylation of purified eNOS by recombinant Akt; assay type: biochemical; settings: FIG. 2D
Procedure: In experiments examining the in vitro phosphorylation of wild-type and mutant eNOS, recombinant Akt (1 mg) purified from baculovirus infected SF9 cells, was incubated with wild-type or S1179A eNOS (2.4 mg, purified from E. coli) using essentially the same conditions as above. Proteins were resolved by SDS-PAGE and ^32P incorporation and the amount of protein determined by Coomassie staining as above.

Molecule: nNOS: rat neuronal NOS [reference compound]
Akt dependent NO release / activation of NOS construct (COS-7 cells): did not result in a further increase in NO release

Molecule: kinase inactive Akt: kinase inactive Akt (K179M) [reference compound]
NO2− accumulation on co-transfection with eNOS (COS-7 cells): not
histone or eNOS phosphorylation by Akt variant (Akt [1]): did not significantly increase histone or eNOS phosphorylation

phosphate incorporated into peptide (Akt [2]): 24.6±3.7 nmol phosphate/mg
Molecule: 1174RIRTQSFSLQERHLRGAVPWA1194 (listed as Bos sp.) [wild-type peptide]

Molecule: myr-nNOS: nNOS with new amino terminus containing the eNOS N-myristoylation consensus site (MGNLKSVG)
Akt dependent NO release / activation of NOS construct (COS-7 cells): results in Akt stimulation of nNOS

Molecule: wild-type Akt: HA-tagged wild-type Akt (protein kinase B) [reference compound]
NO2− accumulation on co-transfection with eNOS (COS-7 cells): markedly enhanced

Molecule: iNOS: human inducible NOS [reference compound]
Akt dependent NO release / activation of NOS construct (COS-7 cells): did not result in a further increase in NO release

B1: G2A eNOS: myristoylation, palmitoylation defective mutant of eNOS (protein)
chain: ANLKSVGQEPGPPCGLGLGLGLGLCGKQGPASPAPEPSRAPAPATPHAPDHSPAPNSPTLTRPPEGPKFPRVKNWELGSITYDTLCAQSQQDGPCTPRCCLGSLVLPRKLQTRPSPGPPPAEQLLSQARDFINQYYSSIKRSGSQAHEERLQEVEAEVASTGTYHLRESELVFGAKQAWRNAPRCVGRIQWGKLQVFDARDCSSAQEMFTYICNHIKYATNRGNLRSAITVFPQRAPGRGDFRIWNSQLVRYAGYRQQDGSVRGDPANVEITELCIQHGWTPGNGRFDVLPLLLQAPDEAPELFVLPPELVLEVPLEHPTLEWFAALGLRWYALPAVSNMLLEIGGLEFSAAPFSGWYMSTEIGTRNLCDPHRYNILEDVAVCMDLDTRTTSSLWKDKAAVEINLAVLHSFQLAKVTIVDHHAATVSFMKHLDNEQKARGGCPADWAWIVPPISGSLTPVFHQEMVNYILSPAFRYQPDPWKGSATKGAGITRKKTFKEVANAVKISASLMGTLMAKRVKATILYASETGRAQSYAQQLGRLFRKAFDPRVLCMDEYDVVSLEHEALVLVVTSTFGNGDPPENGESFAAALMEMSGPYNSSPRPEQHKSYKIRFNSVSCSDPLVSSWRRKRKESSNTDSAGALGTLRFCVFGLGSRAYPHFCAFARAVDTRLEELGGERLLQLGQGDELCGQEEAFRGWAKAAFQASCETFCVGEEAKAAAQDIFSPKRSWKRQRYRLSTQAEGLQLLPGLIHVHRRKMFQATVLSVENLQSSKSTRATILVRLDTAGQEGLQYQPGDHIGICPPNRPGLVEALLSRVEDPPPPTESVAVEQLEKGSPGGPPPSWVRDPRLPPCTLRQALTFFLDITSPPSPRLLRLLSTLAEEPSEQQELETLSQDPRRYEEWKWFRCPTLLEVLEQFPSVALPAPLLLTQLPLLQPRYYSVSSAPNAHPGEVHLTVAVLAYRTQDGLGPLHYGVCSTWLSQLKTGDPVPCFIRGAPSFRLPPDPYVPCILVGPGTGIAPFRGFWQERLHDIESKGLQPAPMTLVFGCRCSQLDHLYRDEVQDAQERGVFGRVLTAFSREPDSPKTYVQDILRTELAAEVHRVLCLERGHMFVCGDVTMATSVLQTVQRILATEGDMELDEAGDVIGVLRDQQRYHEDIFGLTLRTQEVTSRIRTQSFSLQERHLRGAVPWAFDPPGPDTPGP
Akt dependent NO release / activation of NOS construct (COS-7 cells): did not activate

B2: S635, 1179A: double serine mutant of eNOS, serines 635 and 1179 mutated to alanine (protein)
chain: B1 chain with A1G, S634A, S1178A
Akt dependent phosphorylation of eNOS in intact cells (Akt [3]): abolished Akt dependent phosphorylation of eNOS
Akt dependent NO release / activation of NOS construct (COS-7 cells): abolishes Akt dependent NO release
NOS activity in lysates (eNOS): 80.8±23.2 pmol L-citrulline generated/mg protein

Akt-dependent phosphorylation compared to the wild-type protein (Akt [4]): markedly reduces
B3: S1179A: bovine eNOS with serine 1179 mutated to alanine (protein)
chain: B1 chain with A1G, S1178A
Akt dependent NO release / activation of NOS construct (COS-7 cells): abolishes Akt dependent activation of eNOS
NOS activity in lysates (eNOS): 71.9±2.9 pmol L-citrulline generated/mg protein
